From publication PMC12643504

Key:
[1] = target: Full-length PKD2 (WT) (human) (UniProt Q13563); assay: SEC; channel proteins solubilised in DDM, Strep-Tactin affinity purified, reconstituted in amphipol A8-35, MBP cleaved by TEV; SEC at 4°C on Superdex 200 10/300 GL in 25 mM HEPES pH 7.4, 150 mM NaCl, 1 mM TCEP, 1 mM CaCl2; FSEC (Superose 6 5/150 GL, tryptophan fluorescence) after heating
[2] = target: PKD2 R803X Taiwan founder truncation variant (human) (UniProt Q13563); assay: as above

stoichiometry N [1] | stoichiometry N [2] | Substance
4 |  | Full-length PKD2 (WT) (from UniProt Q13563 1-968) (natural protein)
 | 4 | PKD2 R803X Taiwan founder truncation variant (from UniProt Q13563 1-802) (domain or fragment)
